In patent US20060240110A1 (published 2006) one finds binding result and Kd data, which are given here for one molecule.

The target in data set [1] is T1, streptavidin (SA chip surface) (UniProt P22629 37-163, limits assumed).
T1 construct: Commercial chip coating; the construct is not described; also called streptavidin-coated chip
Put plainly: SPR, Biacore 3000, streptavidin-coated chip. In general terms: Surface plasmon resonance follows binding to a sensor surface in real time, without labels.

Data set [2] deals with the molecule itself. As to the kind of experiment: circular dichroism, concentration dependence of MRE222 in PBS fitted for dimerization (coiled-coil self-association).

T1 sequence (P22629 37-163 limits assumed): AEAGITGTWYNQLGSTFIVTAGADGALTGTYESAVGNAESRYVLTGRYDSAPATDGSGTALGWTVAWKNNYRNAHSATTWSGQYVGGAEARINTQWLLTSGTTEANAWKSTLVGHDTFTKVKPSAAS

B1: PF4ZIP (peptide)
peptide: CGGRMKQLEDKVKKLLKKNYHLENEVARLKKLVG
notes: The entry is the single chain; the Kd is for its self-association into a coiled-coil dimer; also called PF4ZIP peptide
As for B1, in data set [1], the binding result is listed as “no binding”. In addition, the Kd – broadly, a measure of binding affinity in units of concentration – in data set [2] is 3.48 µM.
